Kd data for 1 substance are collected here from PMC9089796.

As usually defined, the Kd is a measure of binding affinity in units of concentration.

This assay concerns the target His6-tagged SRC SH3SH2 (residues 84-251) (human) (UniProt P12931). The experiment in a line: SPR; His6-SRC SH3SH2 captured on Ni-NTA dextran chip (NiD200M); PTP4A1 injected for 60 seconds at 50 μL/min; 25°C; 20 mM Tris pH 8.0, 250 mM NaCl, 0.05% Tween 20; single injections fit with a 1-to-1 model.

In the case of “oxidized PTP4A1 (residues 1-160) for SPR and NMR (from UniProt Q93096 1-160) (domain or fragment)”, the Kd was 1500 nM.
